According to article PMC5901963 (Nature, 2017):

Assays:
[1] = molecular target: bacTMEM175 from Streptomyces collinus (Streptomyces collinus); assay: cross-linking
[2] = molecular target: bacTMEM175 from Chryseobacterium sp (Chryseobacterium sp); assay: cross-linking
crystal structure = molecular target: the molecule itself; assay: crystal structure

Work on “bacTMEM175 from Streptomyces collinus (natural protein)” yielded a stoichiometry N [1] of 4.

For “bacTMEM175 from Chryseobacterium sp (natural protein)”, the stoichiometry N [2] was 4.

B1: TMEM175 from Chamaesiphon minutus (CmTMEM175) (natural protein, UniProt K9UJK2 1-203, looked up)
chain: MVEAPEQSETGRIEAFSDGVFAIAITLLVLEIKVPQHKIVETVGLVSSLLSLWPSYLAFLTSFASILVMWVNHHRIFSLVARTDHAFFYWNGLLLMLVTFVPFPTALLAEYLIHPQARVAASVYAGIFLAIAIVFNRLWKHAATADRLLAQKADRHEVDAITKQYRFGPGLYLVAFALSFISVWLSVGVCFVLAIYFALRSNA
With B1 the “stoichiometry N” value (crystal structure) was 4.
